Target: soluble semaphorin 4D
Test: SPR; surface plasmon resonance imaging (SPRi) of TPs and sSema4D; who was immobilised and the conditions are not told in the main text
Conditions: both partners purified

Sequence of soluble semaphorin 4D (chain, as listed by the source): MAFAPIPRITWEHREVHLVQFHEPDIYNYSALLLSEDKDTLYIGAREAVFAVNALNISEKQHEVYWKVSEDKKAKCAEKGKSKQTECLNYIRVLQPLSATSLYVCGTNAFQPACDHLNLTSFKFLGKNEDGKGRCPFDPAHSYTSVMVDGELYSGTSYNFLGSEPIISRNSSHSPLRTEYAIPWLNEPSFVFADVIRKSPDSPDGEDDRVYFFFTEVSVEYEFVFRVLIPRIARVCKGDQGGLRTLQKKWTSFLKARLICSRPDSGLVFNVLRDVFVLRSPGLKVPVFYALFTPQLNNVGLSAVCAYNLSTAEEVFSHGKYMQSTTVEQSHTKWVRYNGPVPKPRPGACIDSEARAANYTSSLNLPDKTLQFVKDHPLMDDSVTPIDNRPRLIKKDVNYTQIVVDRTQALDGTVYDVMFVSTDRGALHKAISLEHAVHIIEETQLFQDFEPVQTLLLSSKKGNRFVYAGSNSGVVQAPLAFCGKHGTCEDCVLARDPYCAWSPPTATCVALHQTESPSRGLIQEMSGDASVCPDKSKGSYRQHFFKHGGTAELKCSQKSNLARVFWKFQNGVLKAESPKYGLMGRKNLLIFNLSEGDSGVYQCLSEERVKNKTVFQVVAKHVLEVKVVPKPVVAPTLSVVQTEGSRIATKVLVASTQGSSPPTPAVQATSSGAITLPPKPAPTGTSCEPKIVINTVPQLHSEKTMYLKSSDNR

Kd [nM] | Binder
41.7 | KQKRPRH (Limits taken by convention as the full extracellular domain after the signal peptide. Species is not printed for the assayed protein; human is assumed, mouse O09126 24-733 is the alternative. Natural) [TP-2]
14.6 | KNKAAKG (Limits taken by convention as the full extracellular domain after the signal peptide. Species is not printed for the assayed protein; human is assumed, mouse O09126 24-733 is the alternative. Natural) [TP-7]
